± gives the half width of the 95% confidence interval.

This data set in a line: folding stability dG unfold (combined trypsin and chymotrypsin); higher = more stable. On the procedure: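 Folding stability of de novo designed mini-proteins (<80 aa, no Cys; designed by TrROS, TrMRF, ProteinMPNN and the joint model) was measured by cDNA display proteolysis with trypsin and chymotrypsin. Each protease was used at 11 concentrations in a threefold dilution series plus a no-protease condition. K50 was inferred by Bayesian fitting of sequencing counts, and dG unfold was derived against a sequence-predicted unfolded-state K50 (Tsuboyama et al. method). Sequences shown include variable-length N-terminal GS-type padding (SAGGSAGG...) inside a display construct carrying a PA tag. Rows were kept only if the AF2 dimer inter-PAE was >15, to exclude likely homo-oligomers.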
Take “SAGGSAGGSAKIKLENPDNMPPEELADTIAEEAREQHPDDKNIEIPFQFPNGNPWRITVDVPSAGGSAGGSA [r18_449_TrROS]”: the “folding stability dG unfold” value was < -1 kcal/mol. Take “SAGGSAGGSAMEAEATPIPLETEEFEIVVTILPGGTARVTTTPPEDGVPTESTVSVETVRALSAGGSAGGSA [r18_247_JUSTAS]”: the “folding stability dG unfold” value was < -1 kcal/mol. Regarding “SAGGSAGGSAMLVELEAGRVIEVPDATPEETRERVRAAVPPEVADEVRIVRAYDPERPVELSAGGSAGGSAG [r3_340_JUSTAS]”, the “folding stability dG unfold” value is < -1 kcal/mol. In the case of “SAGGSAGGSAMNVKFFKLSENELRIEYNEIEEFEDGSLSEEIKTEILKLNLPEDDKKVKELLSAGGSAGGSA [r18_215_JUSTAS]”, the “folding stability dG unfold” value is < -1 kcal/mol. For the sequence “SAGGSAGGSAMSVSVSSPENAEKLAKEIKEKNPNEIPKITKGSGSNSYTLTLPSGKNIKVSSSAGGSAGGSA [r18_154_JUSTAS]”, the “folding stability dG unfold” value was < -1 kcal/mol. Turning to “SAGGSAGGSAMTLRDIARELAEKHGEPYKIKISHPNGRKREFNPDDLDRIPPGPWEVEIERPSAGGSAGGSA [r18_394_TrROS]”, the “folding stability dG unfold” value was < -1 kcal/mol. As to “SAGGSAGGSAMTSVKRSSGSWSITITTPDSTTTTTKAATEEEVQAEVEELKKPGIKVELSPESAGGSAGGSA [r18_103_JUSTAS]”, the “folding stability dG unfold” value was < -1 kcal/mol.

Consider “SAGGSAGGSANPRTITVQYPVDPNGKPLPAEELADELQNEPFKVTDPQWNPEDGYVEDTIEVSAGGSAGGSA [r18_466_TrROS]”, for which the “folding stability dG unfold” value is < -1 kcal/mol. “SAGGSAGGSAPDMYRIRAKFPDGKPFPIEFNPEDGQIEVWDGNKEQTIPPGKPIKIDKIEPVSAGGSAGGSA [r18_144_TrROS]”: the “folding stability dG unfold” value is < -1 kcal/mol. As for “SAGGSAGGSAPEFVVEGSEEEAEAVFERIKAERPEEFEATDISTVSAVPPVPRYTPEGVLVSAGGSAGGSAG [r3_89_JUSTAS]”, the figure is < -1 kcal/mol.

With “SAGGSAGGSASAEELAEALRREHPDAEVTVTVTPVPREVGPRPVLEREVTVESVRSPEEPASAGGSAGGSAG [r3_118_JUSTAS]”, the “folding stability dG unfold” value was < -1 kcal/mol. As for “SAGGSAGGSASAWEQYPNTTPGTTSKTDDVTVRTLTFPNPTTVVTVTEFPGGEVTVTTVPTPSAGGSAGGSA [r18_26_JUSTAS]”, the figure is < -1 kcal/mol; as for “SAGGSAGGSASMRTITITSSTSPSGPPLPAAELAAELAKEGYTVTDPRRVPAEGKLVFTVVASAGGSAGGSA [r18_466_JUSTAS]”, < -1 kcal/mol.

In the case of “SAGGSAGGSASSWTLLSTEKLGSKTRTTMNDPANGKTVTIETDPANGSKVVKVENKETEIESAGGSAGGSAG [r3_297_JUSTAS]”, the “folding stability dG unfold” value was < -1 kcal/mol.

With “SAGGSAGGSATLEQIKEAIKDSPPGEPARIPFPNGYTIRIDMRYDKEENKIDDFDIEIEPPNSAGGSAGGSA [r18_202_TrROS]”, the “folding stability dG unfold” value is < -1 kcal/mol. Take “SAGGSAGGSAYFVRIDNGPTIPIPGMSPDEAKEQLKEYLPPPNKENLKITDVYSPDNGKPLSAGGSAGGSAG [r3_340_TrROS]”: the “folding stability dG unfold” value is < -1 kcal/mol. For the sequence “SAGGSAGGSDKFKIDNIYPDPDMWVYRIKFPKGKSHTFPIPEENIDEFAEDDGFNVEPLGPVPSAGGSAGGS [r12_676_TrROS]”, the “folding stability dG unfold” value is < -1 kcal/mol. As for “SAGGSAGGSEVTEFTGTIEDPNSSTVIEVKTKVIPLPNGTPVTITETTTTTGEKTTTTTTTFASAGGSAGGS [r12_619_JUSTAS]”, the figure is < -1 kcal/mol; as for “SAGGSAGGSGDKSPPLVPTVTLKTTDPDAVEKAVKAAGVAVTRYPGKGYYTFRKADVEKILKSSAGGSAGGS [r12_325_TrMRF]”, < -1 kcal/mol; as for “SAGGSAGGSGKIPKLIKEIGIPYEVKSIKVTTGKDDKPTVEIEFLPDVPEEDREKIKKAIEEESAGGSAGGS [r12_352_TrMRF]”, < -1 kcal/mol. On to “SAGGSAGGSGMEPTFVPVEEIYYNPESNEISKTKSTVVIPPDGTVETFTTTEKFKKPPNASLESAGGSAGGS [r12_116_JUSTAS]”, for which the “folding stability dG unfold” value is < -1 kcal/mol.

As for “SAGGSAGGSGMPIVVTHPSGVGLDEYIPEPYVVTMREPDSVIKVTYDPATGTVTTEVDDGAARSAGGSAGGS [r12_243_JUSTAS]”, the “folding stability dG unfold” value was < -1 kcal/mol. Turning to “SAGGSAGGSGMPVVLLEATFDPNNPGTTYRLTTVDPNTGGVAESEIPASEAEARGLGPLDVLESAGGSAGGS [r12_123_JUSTAS]”, the “folding stability dG unfold” value is < -1 kcal/mol.

As for “SAGGSAGGSISPEAAKEGPLTIEVSWMHPDGRTEEEEFPIGQPIKIPPDFKDRPPQITSIRPRSAGGSAGGS [r12_161_TrROS]”, the “folding stability dG unfold” value is < -1 kcal/mol.

In the case of “SAGGSAGGSKILEIERDPEKGLVKITVPPDVPPNPHPRLLKVEPKNNKYIVTFPMSPSDEIELSAGGSAGGS [r20_37_JUSTAS]”, the “folding stability dG unfold” value is < -1 kcal/mol.

As for “SAGGSAGGSKLKIEQDPSDGFLQIQIPPGDEEVKIKFNGEEIEFPLPPGQPIWIPANNWKIEPSAGGSAGGS [r20_26_TrROS]”, the “folding stability dG unfold” value is < -1 kcal/mol. With “SAGGSAGGSLVELEEEDPSVPVRRRYFIEKPSDGKVKVKEETVVPEPGEVVRSERVISLEEFEKSAGGSAGG [r6_652_JUSTAS]”, the “folding stability dG unfold” value was < -1 kcal/mol. Take “SAGGSAGGSMDDTEEESSSVSRFLENGERYTTRTKTTTRIRPDGTEEVEVEVTTTPLPPDVPLSAGGSAGGS [r12_927_JUSTAS]”: the “folding stability dG unfold” value is < -1 kcal/mol.

Take “SAGGSAGGSMELPSGVVVKSTSEDPAAKTVTVSFPSGAVYTLPLPDPNVSQPVTVKTPPGAGVSAGGSAGGS [r12_149_JUSTAS]”: the “folding stability dG unfold” value is < -1 kcal/mol. In the case of “SAGGSAGGSMKTVTIEVKRPSPDITLEDIKEELLKKNPEVEEVEVEEYPEEGLYKVKVTIKPKSAGGSAGGS [r20_31_JUSTAS]”, the “folding stability dG unfold” value is < -1 kcal/mol. Next, “SAGGSAGGSMKVELIRTEEGKVVATEFFPVPLLLPGGVPALLEGSRTIKTIPVKDPEKAKELLSAGGSAGGS [r12_915_JUSTAS]”: < -1 kcal/mol; “SAGGSAGGSMKVRLLIGEEEVEKAIAEGIPKEVMKPEKEKIPSSTDPRFAGNPEPVLLYYIGESAGGSAGGS [r12_78_JUSTAS]”: < -1 kcal/mol; “SAGGSAGGSMPYEVTITDPNSDRTRTRKVSGDSPEISEAVPPSHTVTLTFGGTKTTLPVPALSSAGGSAGGS [r20_36_JUSTAS]”: < -1 kcal/mol. With “SAGGSAGGSMSIPSDATLVRTYRRGGEELTVSGSVDPATGTVLSEGSLSKRPDATLTEVSVVSSAGGSAGGS [r12_6_JUSTAS]”, the “folding stability dG unfold” value is < -1 kcal/mol. As for “SAGGSAGGSMTFKLKDGKVITYDPANPTLHFPGPPETIPTGGANIAQTIADLKAKGFDYEEVVESAGGSAGG [r6_340_JUSTAS]”, the figure is < -1 kcal/mol. In the case of “SAGGSAGGSMVEEFETTEFSPPEPLVRVERLKKEIFTFPENSLSYKVTPVEERLVTPEEVAAESAGGSAGGS [r12_374_JUSTAS]”, the “folding stability dG unfold” value is < -1 kcal/mol. For the sequence “SAGGSAGGSMVEVVVRPPGGPEYRVSPETSPEEVRARVEAEAGPPPEIEISEEEAKALGVPARSAGGSAGGS [r12_379_JUSTAS]”, the “folding stability dG unfold” value was < -1 kcal/mol.

On to “SAGGSAGGSNGNYRIKIKIRKPNGEPKSQHTFNIPSPEQIKESLAQQPGFPPDRIEDVEVGPYSAGGSAGGS [r12_182_TrROS]”, for which the “folding stability dG unfold” value is < -1 kcal/mol. With “SAGGSAGGSPKEYYIRVKDPEKAKEIMKPLGWPIKPGDEFPIKDPEDILEKLPGIEGIEIHPVSAGGSAGGS [r12_571_TrROS]”, the “folding stability dG unfold” value is < -1 kcal/mol. For the sequence “SAGGSAGGSPLYIQIERRNPKNGENQTLELPIPIDGDPSDARDIAKEIAEQLPPNDYKIEVFRSAGGSAGGS [r12_871_TrROS]”, the “folding stability dG unfold” value was < -1 kcal/mol. As to “SAGGSAGGSPPKPITIMAPYDSPEEAMDKAEEIADELANEGYDIKDVEIEYHPNNGYAMVRIRSAGGSAGGS [r20_155_TrROS]”, the “folding stability dG unfold” value was < -1 kcal/mol. As for “SAGGSAGGSPSITIEKDKEKPVYKVTVYTPNGEKKVFENPEGKKVTTDSNGGEIYIDDVKINVSAGGSAGGS [r12_346_TrMRF]”, the figure is < -1 kcal/mol.

On to “SAGGSAGGSPYKEIPFRFPENGYKVHIKKDPNGSVKIYVMGPNMRERTIPPDEPLEIEPGARLSAGGSAGGS [r12_1003_TrROS]”, for which the “folding stability dG unfold” value is -0.46 ± 0.63 kcal/mol. In the case of “SAGGSAGGSRTIHIPHNAMDKMPPSFEKKIRELADELNIDIEHNNNWMTIPVKGLTEEAIKEFSAGGSAGGS [r12_945_TrROS]”, the “folding stability dG unfold” value was < -1 kcal/mol. As for “SAGGSAGGSSMPVLPVRTEEFPHPDSVYTVTTTRYPPTGATVTVLSTRFPGPPEVVTSTTVTPSAGGSAGGS [r12_14_JUSTAS]”, the “folding stability dG unfold” value is < -1 kcal/mol.

As for “SAGGSAGGSSMSFSFSERRDGKEYSVSVTTAVTPLTLPNGTLRTLTTPTTTVTDPSGKVLSTSSAGGSAGGS [r20_224_JUSTAS]”, the “folding stability dG unfold” value is < -1 kcal/mol.

Consider “SAGGSAGGSSMTPVSSTRSSPSNSVTYTTSRIPIDPSPGKVLNVTTTYSPDPSVTTTTTTVEPSSAGGSAGG [r6_13_JUSTAS]”, for which the “folding stability dG unfold” value is < -1 kcal/mol.

Take “SAGGSAGGSTIPIRDPNREIEIVKHPDNMYRIEIEPNGGKREIILPPEAMQQKPITIEELIDQSAGGSAGGS [r20_90_TrROS]”: the “folding stability dG unfold” value is < -1 kcal/mol. As for “SAGGSAGGSTMEKLQDKAKELGPNVSVEPSQDGPDSIKITFDPDHPKKIKDIAKEYGIKVQIYSAGGSAGGS [r12_74_TrROS]”, the “folding stability dG unfold” value is < -1 kcal/mol. Regarding “SAGGSAGGSVKELAKKAGIKDIDVEPHPNDGWVEIKITMKNPKNGKKREGNILIRDPKDGEPLSAGGSAGGS [r12_133_TrROS]”, the “folding stability dG unfold” value is < -1 kcal/mol. For “SAGGSAGGSVKITRTPNGYYTVKIEDPGGVPVEIPVPADDPGMTNKEAEDEVKPIAKEFKRLKSAGGSAGGS [r12_642_TrROS]”, the “folding stability dG unfold” value is < -1 kcal/mol.

As to “SAGGSAGGSVVPIEYDEDGMLKIEHRNNDKKREHTIPADDADEMPPDFLKDLPPDKIDEITPYSAGGSAGGS [r12_793_TrROS]”, the “folding stability dG unfold” value was < -1 kcal/mol.

On to “SAGGSAGGSYKLGSKLIKEVTSEATPGPSTLETITLEDKTYPITLVGDSLNISPELKKAIELNSAGGSAGGS [r20_92_JUSTAS]”, for which the “folding stability dG unfold” value was < -1 kcal/mol.

(Values after the supplement of paper PMC12764529.)
